Assay results taken from PMC3037348, “Epstein-Barr Virus Nuclear Antigen 3C Facilitates G1-S Transition by Stabilizing and Enhancing the Function of Cyclin D1” (PLoS Pathogens, 2011).

Target: flag-tagged Cyclin D1 (UniProt P24385 1-295)
Experiment: cell-based or functional assay

flag-tagged Cyclin D1, sequence (P24385 whole entry): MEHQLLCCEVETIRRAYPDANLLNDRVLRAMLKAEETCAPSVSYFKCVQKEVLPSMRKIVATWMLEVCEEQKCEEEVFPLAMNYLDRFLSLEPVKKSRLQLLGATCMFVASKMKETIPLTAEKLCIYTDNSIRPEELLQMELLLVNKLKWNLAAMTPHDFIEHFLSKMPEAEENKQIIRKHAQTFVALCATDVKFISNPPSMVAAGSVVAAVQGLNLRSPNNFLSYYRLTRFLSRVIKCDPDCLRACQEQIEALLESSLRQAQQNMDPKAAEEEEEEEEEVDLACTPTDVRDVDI

B1: myc-tagged full-length EBNA3C (residues 1-992) (natural protein)
chain: MESFEGQGDSRQSPDNERGDNVQTTGEHDQDPGPGPPSSGASERLVPEESYSRDQQPWGQSRGDENRGWMQRIRRRRRRRAALSGHLLDTEDNVPPWLPPHDITPYTARNIRDAACRAVKQSHLQALSNLILDSGLDTQHILCFVMAARQRLQDIRRGPLVAEGGVGWRHWLLTSPSQSWPMGYRTATLRTLTPVPNRVGADSIMLTATFGCQNAARTLNTFSATVWTPPHAGPREQERYAREAEVRFLRGKWQRRYRRIYDLIELCGSLHHIWQNLLQTEENLLDFVRFMGVMSSCNNPAVNYWFHKTIGNFKPYYPWNAPPNENPYHARRGIKEHVIQNAFRKAQIQGLSMLATGGEPRGDATSETSSDEDTGRQGSDVELESSDDELPYIDPNMEPVQQRPVMFVSRVPAKKPRKLPWPTPKTHPVKRTNVKTSDRSDKAEAQSTPERPGPSEQSSVTVEPAHPTPVEMPMVILHQPPPVPKPVPVKPTPPPSRRRRGACVVYDDDVIEVIDVETTEDSSSVSQPNKPHRKHQDGFQRSGRRQKRAAPPTVSPSDTGPPAVGPPAAGPPAAGPPAAGPPAAGPPAAGPPAAGPRILAPLSAGPPAAGPHIVTPPSARPRIMAPPVVRMFMRERQLPQSTGRKPQCFWEMRAGREITQMQQEPSSHLQSATQPTTPRPSWAPSVCALSVMDAGKAQPIESSHLSSMSPTQPISHEEQPRYEDPDAPLDLSLHPDVAAQPAPQAPYQGYQEPPAPQAPYQGYQEPPPPQAPYQGYQEPPAHGLQSSSYPGYAGPWTPRSQHPCYRHPWAPWSQDPVHGHTQGPWDPRAPHLPPQWDGSAGHGQDQVSQFPHLQSETGPPRLQLSLVPLVSSSAPSWSSPQPRAPIRPIPTRFPPPPMPLQDSMAVGCDSSGTACPSMPFASDYSQGAFTPLDINATTPKRPRVEESSHGPARCSQATAEAQEILSDNSEISVFPKDAKQTDYDASTESELD
in vitro kinase activity of flag-Cyclin D1/CDK6 immunoprecipitates toward histone H1, HEK 293T cells transfected with increasing amounts of myc-EBNA3C vector (0, 5, 15 µg): 1.6 fold | in vitro kinase activity of flag-Cyclin D1/CDK6 immunoprecipitates toward recombinant GST-pRb (residues 792-928), HEK 293T cells transfected with increasing amounts of myc-EBNA3C vector (0, 5, 15 µg): 2.3 fold
